Results from the Human Domainome abundance scans (Beltran et al. 2025).
± gives the uncertainty stated by the source.

B1: Zinc finger homeobox protein 4, residues 2183 to 2238; numbered along this chain, Q86UP3 (parent)
chain: SSRTRFTDYQLRVLQDFFDTNAYPKDDEIEQLSTVLNLPTRVIVVWFQNARQKARK
B2: Tyrosine-protein kinase BTK, residues 215 to 273; numbered along this chain, Q06187 (parent)
chain: ELKKVVALYDYMPMNANDLQLRKGDEYFILEESNLPWWRARDKNGQEGYIPSNYVTEAE

Variants of: B1
Assay: abundance fitness (aPCA) (normalised: wild type 0, dead -1); higher = more abundant; growth selection in yeast, the domain comes from the species named
Settings: Homo sapiens

Q: With SSRTRFTDYQLRVLQDFFDTNAYPKDDEIEQLSTVLNLETRVIVVWFQNARQKARK as the variant, how does the abundance fitness read?
A: The abundance fitness was -0.037 ± 0.1.

Q: Which abundance fitness does the source give for SSRCRFTDYQLRVLQDFFDTNAYPKDDEIEQLSTVLNLPTRVIVVWFQNARQKARK here?
A: The abundance fitness was -0.446 ± 0.13.

Q: Which abundance fitness does the source give for SSRTRFTDYQLRVLQDFFDTNAYPKDDEIEQLSTVLNLPTRVIVVWFQNARQKIRK here?
A: Its abundance fitness is -0.096 ± 0.13.

Q: Which abundance fitness does the source give for SSRTRFTDYQLRVLQDFFDTNAYPKDDEIEQLSTVLNLPTRVIVVWFQNAWQKARK here?
A: The abundance fitness was -0.194 ± 0.13.

Q: Which abundance fitness does the source give for SSRTRFTDYQLRVLQDFFDTNAYPKDDEIEQLSTVLNLPTRVIVVWFQNAYQKARK here?
A: Its abundance fitness is -0.175 ± 0.31.

Variants of: B2
Assay: as above
Settings: Homo sapiens

Q: For T56Y, which abundance fitness is on record?
A: Its abundance fitness is -0.191 ± 0.064.

Q: For T56N, which abundance fitness is on record?
A: The abundance fitness was -0.094 ± 0.087.

Q: Which abundance fitness does the source give for T56W here?
A: Its abundance fitness is -0.044 ± 0.055.

Q: With T56L as the variant, how does the abundance fitness read?
A: Its abundance fitness is -0.086 ± 0.031.

Q: Which abundance fitness does the source give for T56A here?
A: Its abundance fitness is 0.033 ± 0.038.

Q: Which abundance fitness does the source give for T56H here?
A: The abundance fitness was 0.014 ± 0.087.

Q: Which abundance fitness does the source give for T56R here?
A: Its abundance fitness is 0.012 ± 0.037.

Q: With T56S as the variant, how does the abundance fitness read?
A: The abundance fitness was -0.03 ± 0.04.

Q: For T56F, which abundance fitness is on record?
A: The abundance fitness was -0.169 ± 0.068.

Q: With T56V as the variant, how does the abundance fitness read?
A: The abundance fitness was 0.014 ± 0.038.

Q: With T56Q as the variant, how does the abundance fitness read?
A: Its abundance fitness is 0.043 ± 0.067.

Q: For T56P, which abundance fitness is on record?
A: Its abundance fitness is -0.733 ± 0.07.

Q: For T56D, which abundance fitness is on record?
A: Its abundance fitness is 0.021 ± 0.062.

Q: With T56M as the variant, how does the abundance fitness read?
A: The abundance fitness was 0.025 ± 0.058.

Q: Which abundance fitness does the source give for T56I here?
A: Its abundance fitness is -0.184 ± 0.071.

Q: Which abundance fitness does the source give for T56G here?
A: The abundance fitness was 0.08 ± 0.055.

Q: Which abundance fitness does the source give for T56C here?
A: Its abundance fitness is -0.032 ± 0.092.

Q: Which abundance fitness does the source give for E57A here?
A: Its abundance fitness is -0.025 ± 0.042.

Q: For E57K, which abundance fitness is on record?
A: The abundance fitness was -0.047 ± 0.053.

Q: With E57H as the variant, how does the abundance fitness read?
A: The abundance fitness was 0.023 ± 0.071.

Q: With E57L as the variant, how does the abundance fitness read?
A: The abundance fitness was -0.057 ± 0.037.

Q: For E57F, which abundance fitness is on record?
A: Its abundance fitness is -0.026 ± 0.063.

Q: For E57I, which abundance fitness is on record?
A: Its abundance fitness is -0.133 ± 0.13.

Q: Which abundance fitness does the source give for E57D here?
A: The abundance fitness was -0.072 ± 0.074.

Q: For E57Q, which abundance fitness is on record?
A: The abundance fitness was -0.024 ± 0.043.

Q: Which abundance fitness does the source give for E57M here?
A: The abundance fitness was -0.022 ± 0.056.

Q: With E57G as the variant, how does the abundance fitness read?
A: The abundance fitness was 0.01 ± 0.048.

Q: For E57Y, which abundance fitness is on record?
A: Its abundance fitness is -0.018 ± 0.083.

Q: Which abundance fitness does the source give for E57T here?
A: Its abundance fitness is -0.006 ± 0.051.

Q: With E57S as the variant, how does the abundance fitness read?
A: Its abundance fitness is -0.009 ± 0.035.

Q: Which abundance fitness does the source give for E57V here?
A: Its abundance fitness is 0.03 ± 0.044.

Q: Which abundance fitness does the source give for E57N here?
A: The abundance fitness was 0.088 ± 0.069.

Q: Which abundance fitness does the source give for E57R here?
A: The abundance fitness was -0.065 ± 0.033.

Q: Which abundance fitness does the source give for E57W here?
A: The abundance fitness was -0.051 ± 0.042.

Q: With A58L as the variant, how does the abundance fitness read?
A: Its abundance fitness is -0.113 ± 0.039.

Q: Which abundance fitness does the source give for A58G here?
A: Its abundance fitness is -0.01 ± 0.036.

Q: Which abundance fitness does the source give for A58C here?
A: Its abundance fitness is -0.058 ± 0.06.

Q: For A58V, which abundance fitness is on record?
A: Its abundance fitness is 0.001 ± 0.037.

Q: Which abundance fitness does the source give for A58E here?
A: Its abundance fitness is 0.08 ± 0.057.

Q: Which abundance fitness does the source give for A58W here?
A: Its abundance fitness is -0.11 ± 0.083.

Q: For A58D, which abundance fitness is on record?
A: The abundance fitness was -0.092 ± 0.06.

Q: For A58T, which abundance fitness is on record?
A: Its abundance fitness is -0.051 ± 0.053.

Q: For A58K, which abundance fitness is on record?
A: Its abundance fitness is -0.005 ± 0.086.

Q: Which abundance fitness does the source give for A58I here?
A: The abundance fitness was -0.223 ± 0.071.

Q: For A58Y, which abundance fitness is on record?
A: Its abundance fitness is -0.016 ± 0.075.

Q: With A58N as the variant, how does the abundance fitness read?
A: Its abundance fitness is -0.012 ± 0.073.

Q: For A58P, which abundance fitness is on record?
A: Its abundance fitness is -0.001 ± 0.064.

Q: With A58R as the variant, how does the abundance fitness read?
A: The abundance fitness was -0.03 ± 0.041.

Q: Which abundance fitness does the source give for A58Q here?
A: Its abundance fitness is -0.072 ± 0.077.

Q: For A58F, which abundance fitness is on record?
A: The abundance fitness was -0.016 ± 0.073.

Q: With E59H as the variant, how does the abundance fitness read?
A: The abundance fitness was -0.054 ± 0.13.

Q: Which abundance fitness does the source give for E59M here?
A: The abundance fitness was -0.138 ± 0.083.

Q: For E59V, which abundance fitness is on record?
A: The abundance fitness was 0.023 ± 0.075.

Q: Which abundance fitness does the source give for E59Q here?
A: The abundance fitness was -0.015 ± 0.1.

Q: For E59D, which abundance fitness is on record?
A: The abundance fitness was -0.128 ± 0.086.

Q: With E59K as the variant, how does the abundance fitness read?
A: The abundance fitness was -0.008 ± 0.08.

Q: Which abundance fitness does the source give for E59W here?
A: Its abundance fitness is -0.081 ± 0.064.

Q: For E59T, which abundance fitness is on record?
A: The abundance fitness was -0.012 ± 0.083.

Q: With E59Y as the variant, how does the abundance fitness read?
A: The abundance fitness was -0.116 ± 0.097.

Q: With E59P as the variant, how does the abundance fitness read?
A: Its abundance fitness is -0.025 ± 0.1.

Q: For E59F, which abundance fitness is on record?
A: The abundance fitness was -0.072 ± 0.1.

Q: With E59G as the variant, how does the abundance fitness read?
A: Its abundance fitness is 0.042 ± 0.056.

Q: Which abundance fitness does the source give for E59C here?
A: The abundance fitness was -0.061 ± 0.073.

Q: For E59S, which abundance fitness is on record?
A: The abundance fitness was 0.067 ± 0.053.

Q: For E59L, which abundance fitness is on record?
A: The abundance fitness was -0.097 ± 0.06.

Q: Which abundance fitness does the source give for E59I here?
A: The abundance fitness was -0.014 ± 0.088.
